In patent US20230158141A1 (YAFEI SHANGHAI BIOLOG MEDICINE SCIENCE AND TECHNOLOGY, published 2023):
Substitutions are numbered along the chain they refer to.

T1: IL-10R2-Fc/His (UniProt Q08334 20-220, limits assumed)
T1 sequence (looked up): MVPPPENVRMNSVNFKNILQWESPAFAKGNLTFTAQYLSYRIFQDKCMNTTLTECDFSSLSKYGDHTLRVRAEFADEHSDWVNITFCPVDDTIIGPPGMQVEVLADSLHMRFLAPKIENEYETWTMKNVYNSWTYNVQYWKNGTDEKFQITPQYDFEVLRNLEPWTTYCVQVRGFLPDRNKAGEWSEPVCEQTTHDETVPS

T2: IL-10R1-Fc (UniProt Q13651 22-235, limits assumed)
T2 sequence (looked up): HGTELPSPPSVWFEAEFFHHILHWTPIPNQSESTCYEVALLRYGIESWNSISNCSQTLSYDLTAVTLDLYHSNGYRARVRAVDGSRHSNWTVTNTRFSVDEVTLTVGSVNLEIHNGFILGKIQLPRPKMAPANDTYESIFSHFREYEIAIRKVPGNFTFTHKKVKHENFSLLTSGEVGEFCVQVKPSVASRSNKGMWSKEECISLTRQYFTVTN

B1: IL-10 Arg24Cys-R4-20 (ligand, human, UniProt P22301 19-178, looked up)
chain: SPGQGTQSENSCTHFPGNLPNMLCDLRDAFSRVKTFFQMKDQLDNLLLKESLLEDFKGYLGCQALSEMIQFYLEEVMPQAENQDPDIKAHVNSLGENLKTLRLRLRRCHRFLPCENKSKAVEQVKNAFNKLQEKGIYKAMSEFDIFINYIEAYMTMKIRN
modifications: R4-20 on Cys 24
notes: mature
B2: IL-10 Phe15Cys-S48 (ligand, human, UniProt P22301 19-178, looked up)
chain: B1 chain with F15C, C24R
modifications: S48 on Cys 15
notes: mature
B3: IL-10 Phe15Cys-R4-8 (ligand, human, UniProt P22301 19-178, looked up)
chain: B1 chain with F15C, C24R
modifications: R4-8 on Cys 15
notes: mature
B4: IL-10 Leu101Cys-R4-6 (ligand, human, UniProt P22301 19-178, looked up)
chain: B1 chain with C24R, L101C
modifications: R4-6 on Cys 101
notes: mature
B5: IL-10 Glu81Cys-S48 (ligand, human, UniProt P22301 19-178, looked up)
chain: B1 chain with C24R, E81C
modifications: S48 on Cys 81
notes: mature
B6: IL-10 Asp86Cys-S48 (ligand, human, UniProt P22301 19-178, looked up)
chain: B1 chain with C24R, D86C
modifications: S48 on Cys 86
notes: mature
B7: IL-10 Lys99Cys-S48 (ligand, human, UniProt P22301 19-178, looked up)
chain: B1 chain with C24R, K99C
modifications: S48 on Cys 99
notes: mature
B8: IL-10 Ala89Cys-S48 (ligand, human, UniProt P22301 19-178, looked up)
chain: B1 chain with C24R, A89C
modifications: S48 on Cys 89
notes: mature
B9: IL-10 Arg102Cys-S48 (ligand, human, UniProt P22301 19-178, looked up)
chain: B1 chain with C24R, R102C
modifications: S48 on Cys 102
notes: mature
B10: IL-10 Gln123Cys-S48 (ligand, human, UniProt P22301 19-178, looked up)
chain: B1 chain with C24R, Q123C
modifications: S48 on Cys 123
notes: mature
B11: IL-10 Asn126Cys-R4-18 (ligand, human, UniProt P22301 19-178, looked up)
chain: B1 chain with C24R, N126C
modifications: R4-18 on Cys 126
notes: mature
B12: IL-10 Asp25Cys-R4-11 (ligand, human, UniProt P22301 19-178, looked up)
chain: B1 chain with C24R, D25C
modifications: R4-11 on Cys 25
notes: mature
B13: IL-10 Glu122Cys-S48 (ligand, human, UniProt P22301 19-178, looked up)
chain: B1 chain with C24R, E122C
modifications: S48 on Cys 122
notes: mature
B14: IL-10 Glu122Cys-R4-12 (ligand, human, UniProt P22301 19-178, looked up)
chain: B1 chain with C24R, E122C
modifications: R4-12 on Cys 122
notes: mature
B15: IL-10 Arg104Cys-S48 (ligand, human, UniProt P22301 19-178, looked up)
chain: B1 chain with C24R, R104C
modifications: S48 on Cys 104
notes: mature
B16: IL-10 Asp86Cys-R4-11 (ligand, human, UniProt P22301 19-178, looked up)
chain: B1 chain with C24R, D86C
modifications: R4-11 on Cys 86
notes: mature
B17: IL-10 Asn92Cys-S48 (ligand, human, UniProt P22301 19-178, looked up)
chain: B1 chain with C24R, N92C
modifications: S48 on Cys 92
notes: mature
B18: IL-10 Arg24Cys-S48 (ligand, human, UniProt P22301 19-178, looked up)
chain: B1 chain
modifications: S48 on Cys 24
notes: mature
B19: IL-10 Ala29Cys-R4-5 (ligand, human, UniProt P22301 19-178, looked up)
chain: B1 chain with C24R, A29C
modifications: R4-5 on Cys 29
notes: mature
B20: IL-10 Asn126Cys-S48 (ligand, human, UniProt P22301 19-178, looked up)
chain: B1 chain with C24R, N126C
modifications: S48 on Cys 126
notes: mature
B21: IL-10 Lys99Cys-R4-7 (ligand, human, UniProt P22301 19-178, looked up)
chain: B1 chain with C24R, K99C
modifications: R4-7 on Cys 99
notes: mature
B22: IL-10 Ile87Cys-S48 (ligand, human, UniProt P22301 19-178, looked up)
chain: B1 chain with C24R, I87C
modifications: S48 on Cys 87
notes: mature
B23: IL-10 Arg106Cys-R4-7 (ligand, human, UniProt P22301 19-178, looked up)
chain: B1 chain with C24R, R106C
modifications: R4-7 on Cys 106
notes: mature
B24: IL-10 Leu103Cys-R4-6 (ligand, human, UniProt P22301 19-178, looked up)
chain: B1 chain with C24R, L103C
modifications: R4-6 on Cys 103
notes: mature
B25: IL-10 Ile87Cys-R4-6 (ligand, human, UniProt P22301 19-178, looked up)
chain: B1 chain with C24R, I87C
modifications: R4-6 on Cys 87
notes: mature
B26: IL-10 Arg102Cys-R4-20 (ligand, human, UniProt P22301 19-178, looked up)
chain: B1 chain with C24R, R102C
modifications: R4-20 on Cys 102
notes: mature
B27: IL-10 Lys88Cys-S48 (ligand, human, UniProt P22301 19-178, looked up)
chain: B1 chain with C24R, K88C
modifications: S48 on Cys 88
notes: mature
B28: IL-10 Phe36Cys-R4-8 (ligand, human, UniProt P22301 19-178, looked up)
chain: B1 chain with C24R, F36C
modifications: R4-8 on Cys 36
notes: mature
B29: IL-10 Gln123Cys-R4-19 (ligand, human, UniProt P22301 19-178, looked up)
chain: B1 chain with C24R, Q123C
modifications: R4-19 on Cys 123
notes: mature
B30: IL-10 Glu81Cys-R4-12 (ligand, human, UniProt P22301 19-178, looked up)
chain: B1 chain with C24R, E81C
modifications: R4-12 on Cys 81
notes: mature
B31: IL-10 Phe36Cys-S48 (ligand, human, UniProt P22301 19-178, looked up)
chain: B1 chain with C24R, F36C
modifications: S48 on Cys 36
notes: mature
B32: IL-10 Arg107Cys-S48 (ligand, human, UniProt P22301 19-178, looked up)
chain: B1 chain with C24R, R107C
modifications: S48 on Cys 107
notes: mature
B33: IL-10 Thr35Cys-R4-5 (ligand, human, UniProt P22301 19-178, looked up)
chain: B1 chain with C24R, T35C
modifications: R4-5 on Cys 35
notes: mature
B34: IL-10 Val33Cys-S48 (ligand, human, UniProt P22301 19-178, looked up)
chain: B1 chain with C24R, V33C
modifications: S48 on Cys 33
notes: mature
B35: IL-10 Leu101Cys-S48 (ligand, human, UniProt P22301 19-178, looked up)
chain: B1 chain with C24R, L101C
modifications: S48 on Cys 101
notes: mature
B36: IL-10 Val33Cys-R4-7 (ligand, human, UniProt P22301 19-178, looked up)
chain: B1 chain with C24R, V33C
modifications: R4-7 on Cys 33
notes: mature
B37: IL-10 Ala89Cys-R4-1 (ligand, human, UniProt P22301 19-178, looked up)
chain: B1 chain with C24R, A89C
modifications: R4-1 on Cys 89
notes: mature
B38: IL-10 Asn18Cys-S48 (ligand, human, UniProt P22301 19-178, looked up)
chain: B1 chain with N18C, C24R
modifications: S48 on Cys 18
notes: mature
B39: IL-10 Asn21Cys-R4-18 (ligand, human, UniProt P22301 19-178, looked up)
chain: B1 chain with N21C, C24R
modifications: R4-18 on Cys 21
notes: mature
B40: IL-10 Glu96Cys-S48 (ligand, human, UniProt P22301 19-178, looked up)
chain: B1 chain with C24R, E96C
modifications: S48 on Cys 96
notes: mature
B41: IL-10 Glu96Cys-R4-12 (ligand, human, UniProt P22301 19-178, looked up)
chain: B1 chain with C24R, E96C
modifications: R4-12 on Cys 96
notes: mature
B42: IL-10 Asn92Cys-R4-18 (ligand, human, UniProt P22301 19-178, looked up)
chain: B1 chain with C24R, N92C
modifications: R4-18 on Cys 92
notes: mature
B43: IL-10 Lys88Cys-R4-7 (ligand, human, UniProt P22301 19-178, looked up)
chain: B1 chain with C24R, K88C
modifications: R4-7 on Cys 88
notes: mature
B44: IL-10 Leu103Cys-S48 (ligand, human, UniProt P22301 19-178, looked up)
chain: B1 chain with C24R, L103C
modifications: S48 on Cys 103
notes: mature
B45: IL-10 Arg32Cys-R4-7 (ligand, human, UniProt P22301 19-178, looked up)
chain: B1 chain with C24R, R32C
modifications: R4-7 on Cys 32
notes: mature
B46: IL-10 Ala29Cys-S48 (ligand, human, UniProt P22301 19-178, looked up)
chain: B1 chain with C24R, A29C
modifications: S48 on Cys 29
notes: mature
B47: IL-10 Arg106Cys-S48 (ligand, human, UniProt P22301 19-178, looked up)
chain: B1 chain with C24R, R106C
modifications: S48 on Cys 106
notes: mature
B48: IL-10 Thr6Cys-S48 (ligand, human, UniProt P22301 19-178, looked up)
chain: B1 chain with T6C, C24R
modifications: S48 on Cys 6
notes: mature
B49: IL-10 Val91Cys-R4-5 (ligand, human, UniProt P22301 19-178, looked up)
chain: B1 chain with C24R, V91C
modifications: R4-5 on Cys 91
notes: mature
B50: IL-10 Val91Cys-S48 (ligand, human, UniProt P22301 19-178, looked up)
chain: B1 chain with C24R, V91C
modifications: S48 on Cys 91
notes: mature
B51: IL-10 Tyr149Cys-S48 (ligand, human, UniProt P22301 19-178, looked up)
chain: B1 chain with C24R, Y149C
modifications: S48 on Cys 149
notes: mature

The binders below were run against T1, IL-10R2-Fc/His (assay: ELISA, IL-10R2-Fc/His coated).

| Binder | Binding recovery (>60%) [%] | Decreased fold of binding to ligand after Conjugating with S48 [fold] |
| --- | --- | --- |
| B1 | 98.1 |  |
| B2 |  | 3 |
| B3 | 90 |  |
| B4 | 91 |  |
| B5 |  | 3 |
| B6 |  | 3 |
| B7 |  | 3 |
| B8 |  | 5 |
| B9 |  | 3 |
| B10 |  | 3 |
| B11 | 99 |  |
| B12 | 91.5 |  |
| B13 |  | 3 |
| B14 | 99.8 |  |
| B15 |  | 6 |
| B16 | 81 |  |
| B17 |  | 3 |
| B18 |  | 9 |
| B19 | 78 |  |
| B20 |  | 3 |
| B21 | 117 |  |
| B22 |  | 4 |
| B23 | 99.6 |  |
| B24 | 89.4 |  |

| Binder | Binding recovery (>60%) [%] | Decreased fold of binding to ligand after Conjugating with S48 [fold] |
| --- | --- | --- |
| B25 | 95.7 |  |
| B26 | 99 |  |
| B27 |  | 3 |
| B28 | 79.6 |  |
| B29 | 96.5 |  |
| B30 | 93.6 |  |
| B31 |  | 3 |
| B32 |  | 5 |
| B33 | 123 |  |
| B34 |  | 3 |
| B35 |  | 3 |
| B36 | 91.4 |  |
| B37 | 78.7 |  |
| B38 |  | 4 |
| B39 | 85.3 |  |
| B40 |  | 3 |
| B41 | 98 |  |
| B42 | 86.4 |  |
| B43 | 99 |  |
| B44 |  | 3 |
| B45 | 89.6 |  |
| B46 |  | 3 |
| B47 |  | 3 |

What follows are binders tested against T2, IL-10R1-Fc (assay: ELISA, IL-10R1-Fc coated).

| Binder | Binding recovery (>60%) [%] | Decreased fold of binding to ligand after Conjugating with S48 [fold] |
| --- | --- | --- |
| B1 | 90 |  |
| B48 |  | 3 |
| B15 |  | 3 |
| B18 |  | 33 |
| B32 |  | 3 |
| B49 | 97.2 |  |
| B50 |  | 3 |
| B38 |  | 12 |
| B39 | 99.7 |  |
| B51 |  | 5 |
| B45 | 90.4 |  |
